Experiments:
[1] = target: T1, Human CD27 ECD truncated (ECD 1-121, cleavage site, His6) (human); assay: ProteOn SPR, purified mAb, CD27-His
T1 construct: also called human CD27 ECD with His Tag; CD27-His
T1 chain: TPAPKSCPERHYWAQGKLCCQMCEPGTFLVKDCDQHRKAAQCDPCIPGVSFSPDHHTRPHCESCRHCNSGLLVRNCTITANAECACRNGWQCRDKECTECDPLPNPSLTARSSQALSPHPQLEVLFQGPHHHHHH

[2] = target: T1, Human CD27 ECD truncated (ECD 1-121, …); assay: ProteOn SPR, culture supernatants
[3] = target: T1, Human CD27 ECD truncated (ECD 1-121, …); assay: ProteOn SPR, culture supernatants
[4] = target: T2, Human CD27 ECD, monomeric soluble (construct limits not stated) (human, UniProt P26842 20-191); assay: Biacore SPR, purified mAb, CD27-His
T2 construct: extracellular domain; target of the Biacore assays; also called monomeric soluble CD27; CD27-His
T2 sequence (P26842 20-191): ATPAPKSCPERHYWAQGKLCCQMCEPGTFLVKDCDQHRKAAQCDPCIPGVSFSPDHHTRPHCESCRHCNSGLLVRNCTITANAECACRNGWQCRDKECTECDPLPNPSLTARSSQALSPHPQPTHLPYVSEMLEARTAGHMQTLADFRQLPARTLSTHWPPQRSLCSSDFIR

[5] = target: T3, Human CD27, full length on the cell surface (human, UniProt P26842 21-260); assay: cell-based or functional assay
[6] = target: T2, Human CD27 ECD, monomeric soluble …; assay: Biacore SPR, purified mAb
[7] = target: T1, Human CD27 ECD truncated (ECD 1-121, …); assay: ELISA of culture supernatants; binding to CD27 ECD; signal relative to the parent
[8] = target: T3, Human CD27, full length on the cell …; assay: cell-based or functional assay; remark: listed apart in the source
[9] = target: T1, Human CD27 ECD truncated (ECD 1-121, …); assay: ProteOn SPR; mAb captured via anti-human Fc; CD27 ECD as analyte
[10] = target: T1, Human CD27 ECD truncated (ECD 1-121, …); assay: ProteOn SPR, culture supernatants

B1: M160 (antibody, human IgG4, V domains shown)
VH: QVQLVQSGAEVKKPGASVKVSCKASGYAFSSSWMNWVRQAPGQGLEWMGRIYSGDGDTNYNGKFKGRVTMTRDTSTSTVYMELSSLRSEDTAVYYCARSDYYGDYGFAYWGQGTLVTVSS
VL: DIQMTQSPSSLSASVGDRVTITCKASQSVDYAGDSFMNWYQQKPGKAPKLLIYAASNLESGVPSRFSGSGSGTDFTLTISSLQPEDFATYYCQQSNEDPYTFGQGTKVEIK
notes: also called H196,L219
B1 showed a Kd [1] of 0.108 nM, a koff [1] of 0.000223 s⁻¹ and a kon [1] of 2.07e+06 M⁻¹ s⁻¹. The Kd [2] was 0.12 nM, the “fold decrease in KD against the parental mAb M159” value (“fold decrease in KD” for short) [3] was 20 fold and the Kd [4] was 0.117 nM. The koff [4] was 0.00018 s⁻¹ and the kon [4] was 1.6e+06 M⁻¹ s⁻¹.

B2: M157 (antibody, human IgG4, V domains shown)
VH: QVQLVQSGAEVKKPGASVKVSCKASGYAFSSSWMNWVRQAPGQGLEWMGRIYQGDGDTNYNGKFKGRVTMTRDTSTSTVYMELSSLRSEDTAVYYCARSDYYGDYGFAYWGQGTLVTVSS
VL: DIQMTQSPSSLSASVGDRVTITCKASQSVDYAGDSYMNWYQQKPGKAPKLLIYAASNLESGVPSRFSGSGSGTDFTLTISSLQPEDFATYYCQQSNEDPYTFGQGTKVEIK
notes: also called H197,L220
In the case of B2, the Kd [2] is reported as 0.39 nM and the “fold decrease in KD” value [3] is reported as 6 fold.

B3: M149 (antibody, human IgG4, V domains shown)
VH: QVQLVQSGAEVKKPGASVKVSCKASGYAFSSSWMNWVRQAPGQGLEWMGRIYPGDGDTNYNGKFKGRVTMTRDTSTSTVYMELSSLRSEDTAVYYCARSDYYGDYGFAYWGQGTLVTVSS
VL: DIQMTQSPSSLSASVGDRVTITCKASQSVDYAGDSFMNWYQQKPGKAPKLLIYAASNLESGVPSRFSGSGSGTDFTLTISSLQPEDFATYYCQQSNEDPYTFGQGTKVEIK
notes: also called H25,L219
With B3 the Kd [2] was 0.54 nM and the “fold decrease in KD” value [3] was 4 fold.

B4: M158 (antibody, human IgG4, V domains shown)
VH: QVQLVQSGAEVKKPGASVKVSCKASGYAFSSSWMNWVRQAPGQGLEWMGRIYSGDGDTNYNGKFKGRVTMTRDTSTSTVYMELSSLRSEDTAVYYCARSDYYGDYGFAYWGQGTLVTVSS
VL: DIQMTQSPSSLSASVGDRVTITCKASQSVDYAGDSYMNWYQQKPGKAPKLLIYAASNLESGVPSRFSGSGSGTDFTLTISSLQPEDFATYYCQQSNEDPYTFGQGTKVEIK
notes: also called H196,L220
With B4 the Kd [2] was 0.36 nM, the “fold decrease in KD” value [3] was 6 fold and the Kd [4] was 0.439 nM. For the same binder, the koff [4] was 0.00066 s⁻¹ and the kon [4] was 1.5e+06 M⁻¹ s⁻¹.

B5: M155 (antibody, human IgG4, V domains shown)
VH: QVQLVQSGAEVKKPGASVKVSCKASGYAFSSSWMNWVRQAPGQGLEWMGRIYPGDGDTNYNGKFKGRVTMTRDTSTSTVYMELSSLRSEDTAVYYCARSDYYGDYGFAYWGQGTLVTVSS
VL: DIQMTQSPSSLSASVGDRVTITCKASQSVDYAHESFMNWYQQKPGKAPKLLIYAASNLESGVPSRFSGSGSGTDFTLTISSLQPEDFATYYCQQSNEDPYTFGQGTKVEIK
notes: also called H25,L217
In the case of B5, the Kd [2] is reported as 0.37 nM and the “fold decrease in KD” value [3] is reported as 6 fold.

B6: M713 (antibody, V domains shown)
VH: QVQLVQSGAEVKKPGASVKVSCKASGYAFSSSWMNWVRQAPGQGLEWMGRIYSGDADTNYAQKFKGRVTMTRDTSTSTVYMELSSLRSEDTAVYYCARSDYYGDYGFAYWGQGTLVTVSS
VL: DIQMTQSPSSLSASVGDRVTITCKASQSVDYAGESFMNWYQQKPGKAPKLLIYAASNLESGVPSRFSGSGSGTDFTLTISSLQPEDFATYYCQQSNEDPYTFGQGTKVEIK
notes: also called single-gene DNA ID 713
In the case of B6, the “NF-kB Assay IC50” value [5] is reported as 0.296 nM, the Kd [6] is reported as 0.056 nM and the koff [6] is reported as 1.16e-05 s⁻¹. It also gave a kon [6] of 206000 M⁻¹ s⁻¹.

B7: M166 (antibody, human IgG4, V domains shown)
VH: QVQLVQSGAEVKKPGASVKVSCKASGYAFSSSWMNWVRQAPGQGLEWMGRIYSGDGDTNYNGKFKGRVTMTRDTSTSTVYMELSSLRSEDTAVYYCARSDYYGDYGFAYWGQGTLVTVSS
VL: DIQMTQSPSSLSASVGDRVTITCKASQSVDYAHESFMNWYQQKPGKAPKLLIYAASNLESGVPSRFSGSGSGTDFTLTISSLQPEDFATYYCQQSNEDPYTFGQGTKVEIK
notes: also called H196,L217
B7 showed a Kd [1] of 0.127 nM, a koff [1] of 0.000234 s⁻¹ and a kon [1] of 1.84e+06 M⁻¹ s⁻¹. The Kd [2] was 0.1 nM, the “fold decrease in KD” value [3] was 20 fold and the Kd [4] was 0.126 nM. It also gave a koff [4] of 0.000203 s⁻¹ and a kon [4] of 1.62e+06 M⁻¹ s⁻¹.

B8: M69 (antibody, human IgG1, V domains shown)
VH: EVQLVQSGAEVKKPGESLKISCKGSGYAFSSSWMNWVRQMPGKGLEWMGRIYPGDGDTNYSPSFQGQVTISADKSISTAYLQWSSLKASDTAMYYCARSDYYGDYGFAYWGQGTLVTVSS
VL: DIVMTQSPDSLAVSLGERATINCKASQSVDYAGDSYMNWYQQKPGQPPKLLIYAASNLESGVPDRFSGSGSGTDFTLTISSLQAEDVAVYYCQQSNEDPYTFGQGTKLEIK
notes: also called H28/L35; C2177 HFR variant
With B8 the ELISA signal [7] was 1.09, the “NFkB IC50” value [8] was 0.11 nM and the Kd [9] was 0.77 nM.

B9: M709 (antibody, V domains shown)
VH: EVQLVQSGAEVKKPGESLKISCKGSGYAFSSSWMNWVRQMPGKGLEWMGRIYAGDADTAYSPSFQGQVTISADKSISTAYLQWSSLKASDTAMYYCARSDYYGDYGFAYWGQGTLVTVSS
VL: DIVMTQSPDSLAVSLGERATINCKASQSVDYAGESFMNWYQQKPGQPPKLLIYAASNLESGVPDRFSGSGSGTDFTLTISSLQAEDVAVYYCQQSNEDPYTFGQGTKLEIK
notes: also called single-gene DNA ID 709
With B9 the “NF-kB Assay IC50” value [5] was 0.272 nM, the Kd [6] was 0.026 nM and the koff [6] was 5.89e-05 s⁻¹. For the same binder, the kon [6] was 2.3e+06 M⁻¹ s⁻¹.

B10: M711 (antibody, V domains shown)
VH: EVQLVQSGAEVKKPGESLKISCKGSGYAFSSSWMNWVRQMPGKGLEWMGRIYSGDADTNYNQKFKGQVTISADKSISTAYLQWSSLKASDTAMYYCARSDYYGDYGFAYWGQGTLVTVSS
VL: DIQMTQSPSSLSASVGDRVTITCKASQSVDYAGESFMNWYQQKPGKAPKLLIYAASNLESGVPSRFSGSGSGTDFTLTISSLQPEDFATYYCQQSNEDPYTFGQGTKVEIK
notes: also called single-gene DNA ID 711
For B10, the “NF-kB Assay IC50” value [5] was 0.258 nM, the Kd [6] was 0.03 nM and the koff [6] was 5.82e-05 s⁻¹. It also gave a kon [6] of 1.97e+06 M⁻¹ s⁻¹.

B11: M680 (antibody, V domains shown)
VH: EVQLVQSGAEVKKPGESLKISCKGSGYAFSSSWMNWVRQMPGKGLEWMGRIYAGDGDTNYAPSFQGQVTISADKSISTAYLQWSSLKASDTAMYYCARSDYYGDYGFAYWGQGTLVTVSS
VL: DIVMTQSPDSLAVSLGERATINCKASQSVDYAGDSFMNWYQQKPGQPPKLLIYAASNLESGVPDRFSGSGSGTDFTLTISSLQAEDVAVYYCQQSNEDPYTFGQGTKLEIK
notes: IgG; subclass not restated; also called H260/L255
Work on B11 yielded a Kd [10] of 0.03 nM.

B12: M706 (antibody, V domains shown)
VH: EVQLVQSGAEVKKPGESLKISCKGSGYAFSSSWMNWVRQMPGKGLEWMGRIYAGDADTNYAPSFQGQVTISADKSISTAYLQWSSLKASDTAMYYCARSDYYGDYGFAYWGQGTLVTVSS
VL: DIVMTQSPDSLAVSLGERATINCKASQSVDYAGESFMNWYQQKPGQPPKLLIYAASNLESGVPDRFSGSGSGTDFTLTISSLQAEDVAVYYCQQSNEDPYTFGQGTKLEIK
notes: IgG; subclass not restated; also called H272/L267
Binder B12 has a Kd [10] of 0.013 nM.

B13: M600 (antibody, V domains shown)
VH: EVQLVQSGAEVKKPGESLKISCKGSGYAFSSSWMNWVRQMPGKGLEWMGRIYAGDGDTNYSPSFQGQVTISADKSISTAYLQWSSLKASDTAMYYCARSDYYGDYGFAYWGQGTLVTVSS
VL: DIVMTQSPDSLAVSLGERATINCKASQSVDYAGDSFMNWYQQKPGQPPKLLIYAASNLESGVPDRFSGSGSGTDFTLTISSLQAEDVAVYYCQQSNEDPYTFGQGTKLEIK
notes: IgG; subclass not restated; also called H239/L255
In the case of B13, the Kd [10] is reported as 0.049 nM.

B14: M703 (antibody, V domains shown)
VH: EVQLVQSGAEVKKPGESLKISCKGSGYAFSSSWMNWVRQMPGKGLEWMGRIYAGDADTAYSPSFQGQVTISADKSISTAYLQWSSLKASDTAMYYCARSDYYGDYGFAYWGQGTLVTVSS
VL: DIVMTQSPDSLAVSLGERATINCKASQSVDYAGESFMNWYQQKPGQPPKLLIYAASNLESGVPDRFSGSGSGTDFTLTISSLQAEDVAVYYCQQSNEDPYTFGQGTKLEIK
notes: IgG; subclass not restated; also called H270/L267
B14 gave a Kd [10] of 0.028 nM.

B15: M678 (antibody, V domains shown)
VH: EVQLVQSGAEVKKPGESLKISCKGSGYAFSSSWMNWVRQMPGKGLEWMGRIYAGDGDTAYSPSFQGQVTISADKSISTAYLQWSSLKASDTAMYYCARSDYYGDYGFAYWGQGTLVTVSS
VL: DIVMTQSPDSLAVSLGERATINCKASQSVDYAGDSFMNWYQQKPGQPPKLLIYAASNLESGVPDRFSGSGSGTDFTLTISSLQAEDVAVYYCQQSNEDPYTFGQGTKLEIK
notes: IgG; subclass not restated; also called H259/L255
B15 was tested, and the Kd [10] was 0.053 nM.

B16: M710 (antibody, V domains shown)
VH: EVQLVQSGAEVKKPGESLKISCKGSGYAFSSSWMNWVRQMPGKGLEWMGRIYAGDADTNYAPSFQGQVTISADKSISTAYLQWSSLKASDTAMYYCARSDYYGDYGFAYWGQGTLVTVSS
VL: DIVMTQSPDSLAVSLGERATINCKASQSVDYAGESFMNWYQQKPGQPPKLLIYAASNLESGVPDRFSGSGSGTDFTLTISSLQAEDVAVYYCQQSNEDPYTFGQGTKLEIK
notes: also called single-gene DNA ID 710
B16 was tested, and the “NF-kB Assay IC50” value [5] was 0.32 nM, the Kd [6] was 0.019 nM and the koff [6] was 4.88e-05 s⁻¹. For the same binder, the kon [6] was 2.55e+06 M⁻¹ s⁻¹.
